Here are results for one molecule from patent publication CN112300278A (UNIV SHANGHAI JIAOTONG, dated 2021).

In this test the target is T1, 人EGFR (human epidermal growth factor receptor) (human, UniProt P00533 25-1210).
T1 construct: whole, on cells; The target is on tumour cell lines that naturally express EGFR; No recombinant EGFR was used; also called 表皮生长因子受体; EGFR分子
Put plainly: flow cytometry on MAD-MB-231 cells highly expressing EGFR; 293F supernatant (~20ug antibody), FITC donkey anti-human IgG. In general terms: A flow cytometer gives signals particle by particle.

B1: CET06 (antibody, V domains shown)
VH: QVQLTQSGPGLVKPSETLSQTCTVSGFSLTNYGVHWVRQSPGKGLEWLGVIWSGGNTDYNTPFTSRLTISVDTSKNQVSLKLSSVTSNDTAVYYCARALTYYDYEFAYWGQGTLVTVSA
VL: DISLTQSPVFLSVTPGEKVESECRASQSIGTNIHWYQQKPDQSPKLLIKYASESISGVPSRFSGSGSGTDFTLTINSVESEDIADYYCQQNNNWPTTFGAGTKLELKR
notes: the summary and claim 2 give the reverse; also called 抗人EGFR嵌合抗体CET06
For the molecule B1, the binding result is “binds”.
